Measurements as given in US20240301041A1 (Regeneron, published 2024).

Assays:
[1] = biological target: T1, Protein A on the surface of S. aureus Newman wild-type (Staphylococcus aureus (strain Newman), UniProt P38507 37-477); test: ELISA, coated S. aureus Newman, antibody 7.54E-11 M
T1 construct: whole, on cells; also called S. aureus Newman WT; wild-type S. aureus expressing Protein A

[2] = biological target: T2, IgG binding protein (Protein A homolog SpsQ/SpsP) on S. intermedius 27369 (Staphylococcus intermedius); test: ELISA, coated S. intermedius 27369, antibody 9.42E-12 M
T2 construct: whole, on cells; also called Staphylococcus intermedius 27369

[3] = biological target: T3, IgG binding protein (Protein A homolog SpsQ/SpsP) on MRSP S. pseudintermedius 88493 (Staphylococcus pseudintermedius); test: ELISA, coated S. pseudintermedius 88493, antibody 3.86E-08 M
T3 construct: whole, on cells; also called MRSP Staphylococcus pseudintermedius 88493 (methicillin-resistant)

[4] = biological target: T3, IgG binding protein (Protein A homolog …); test: ELISA, coated S. pseudintermedius 88493, antibody 1.18E-12 M
[5] = biological target: T1, Protein A on the surface of S. aureus …; test: flow cytometry; blocking antibody 1 ug/mL, then Alexa-488 Fc fragment (competitor) on wild-type S. aureus
[6] = biological target: T2, IgG binding protein (Protein A homolog …); test: ELISA, coated S. intermedius 27369, antibody 1.47E-13 M
[7] = biological target: T1, Protein A on the surface of S. aureus …; test: cell-based or functional assay
[8] = biological target: T4, IgG binding protein (Protein A homolog SpsQ/SpsP) on S. pseudintermedius AHDRCC 98200 (Staphylococcus pseudintermedius); test: cell-based or functional assay
[9] = biological target: T2, IgG binding protein (Protein A homolog …); test: cell-based or functional assay
[10] = biological target: T3, IgG binding protein (Protein A homolog …); test: ELISA, coated S. pseudintermedius 88493, antibody 7.54E-11 M
[11] = biological target: T1, Protein A on the surface of S. aureus …; test: ELISA, coated S. aureus Newman, antibody 3.86E-08 M
[12] = biological target: T1, Protein A on the surface of S. aureus …; test: flow cytometry; blocking antibody 10 ug/mL, then Alexa-488 VH3 hIgG1*/* antibody (competitor) on wild-type S. aureus
[13] = biological target: T4, IgG binding protein (Protein A homolog …); test: ELISA, coated S. pseudintermedius 98200, antibody 7.54E-11 M
[14] = biological target: T4, IgG binding protein (Protein A homolog …); test: ELISA, coated S. pseudintermedius 98200, antibody 4.82E-09 M
[15] = biological target: T1, Protein A on the surface of S. aureus …; test: ELISA, coated S. aureus Newman, antibody 1.47E-13 M
[16] = biological target: T1, Protein A on the surface of S. aureus …; test: flow cytometry; blocking antibody 1 ug/mL, then Alexa-488 VH3 hIgG1*/* antibody (competitor) on wild-type S. aureus
[17] = biological target: T2, IgG binding protein (Protein A homolog …); test: ELISA, coated S. intermedius 27369, antibody 3.09E-07 M
[18] = biological target: T3, IgG binding protein (Protein A homolog …); test: ELISA, coated S. pseudintermedius 88493, antibody 3.09E-07 M
[19] = biological target: T2, IgG binding protein (Protein A homolog …); test: ELISA, coated S. intermedius 27369, antibody 7.54E-11 M

B1: H1xH15140P*/* (anti-Protein A) (antibody, V domains shown)
VH: EVQLVESGGGLVQPGGSLTLSCTASGFSFSSYVMSWVRQSPGKGLEWVSAIGGSGTSTYYRDSVKGRFTISRDNSKNTLNLQMSSLRAEDTAVYYCARDGLGHRDYWGQGTLVTVSS
VL: DIQMTQSPSSVSASVGDRVTITCRASQGINSWLAWYQQKPGKAPKLLIYAASSLQSGVPSRFSGSGSGTDFTLTISSLQPEDFATYYCQQANSFPFTFGPGTKVDIK
notes: also called anti-Protein A hIgG1*/*; H1xH15140P*/*-L1
In the case of B1, the ELISA luminescent signal [1] is reported as 238000, the ELISA luminescent signal [2] is reported as 1520 and the ELISA luminescent signal [3] is reported as 6360. For the same binder, the ELISA luminescent signal [4] was 5990, the “Fc: S. aureus blocking activity (%)” value [5] was 78% and the ELISA luminescent signal [6] was 1510. For the same binder, the “median cfu/mL after 16 h in 50% normal human serum, mAb 10 ug/mL” value [7] was 4.3e+06 cfu/mL, the “median cfu/mL after 16 h in 50% normal human serum, mAb 30 ug/mL” value [7] was 1e+06 cfu/mL and the “median cfu/mL after 16 h in 50% normal human serum, mAb 90 ug/mL” value [7] was 600000 cfu/mL. For the same binder, the “median cfu/mL after 16 h in 50% normal human serum, mAb 270 ug/mL” value [7] was 180000 cfu/mL, the “median cfu/mL after 16 h in 50% normal human serum, mAb 10 ug/mL” value [8] was 7.3e+06 cfu/mL and the “median cfu/mL after 16 h in 50% normal human serum, mAb 30 ug/mL” value [8] was 6.8e+06 cfu/mL. The “median cfu/mL after 16 h in 50% normal human serum, mAb 90 ug/mL” value [8] was 6.8e+06 cfu/mL, the “median cfu/mL after 16 h in 50% normal human serum, mAb 270 ug/mL” value [8] was 4.5e+06 cfu/mL and the “median cfu/mL after 16 h in 50% normal human serum, mAb 10 ug/mL” value [9] was 6e+06 cfu/mL. The “median cfu/mL after 16 h in 50% normal human serum, mAb 30 ug/mL” value [9] was 8.3e+06 cfu/mL, the “median cfu/mL after 16 h in 50% normal human serum, mAb 90 ug/mL” value [9] was 8.5e+06 cfu/mL and the “median cfu/mL after 16 h in 50% normal human serum, mAb 270 ug/mL” value [9] was 3.8e+06 cfu/mL. For the same binder, the ELISA luminescent signal [10] was 5410, the ELISA luminescent signal [11] was 838000 and the “VH3 antibody: S. aureus blocking activity (%)” value [12] was 84.7%. The ELISA luminescent signal [13] was 4680, the ELISA luminescent signal [14] was 3400 and the ELISA luminescent signal [15] was 22000. For the same binder, the “VH3 antibody: S. aureus blocking activity (%)” value [16] was 84.5%, the ELISA luminescent signal [17] was 21000 and the ELISA luminescent signal [18] was 10700. For the same binder, the ELISA luminescent signal [19] was 2660.
